# B1: Secretory Leucocyte Protease Inhibitor (protein)
# chain: SGKSFKAGVCPPKKSAQCLRYKKPECQSDWQCPGKKRCCPDTCGIKCLDPVDTPNPTRRKPGKCPVTYGQCLMLNPPNFCEMDGQCKRDLKCCMGMCGKSCVSPVKA
# Target: T1, hNE (Homo sapiens, UniProt P08246)
# T1 sequence (P08246 30-267): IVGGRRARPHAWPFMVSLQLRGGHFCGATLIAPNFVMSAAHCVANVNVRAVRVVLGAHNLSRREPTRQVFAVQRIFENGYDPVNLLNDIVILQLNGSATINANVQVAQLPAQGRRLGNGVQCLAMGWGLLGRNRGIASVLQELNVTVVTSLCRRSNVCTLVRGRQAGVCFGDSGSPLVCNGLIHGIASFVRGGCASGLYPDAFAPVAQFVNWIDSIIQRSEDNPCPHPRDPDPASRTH
# Assay: Resistance to oxidative inactivation by Chloramine-T, residual hNE-inhibition activity
# Format: physicochemical
# Details: 20 minutes at RT
# Method: At the end of the incubation period, the oxidation reactions were quenched by adding methionine to a final concentration of 4 mM. After a further 10 minute incubation, the quenched reactions were diluted and assayed for residual inhibitor activity in our standard hNE-inhibition assay.
# Inhibitors were incubated in the presence of Chloramine-T at the molar ratios indicated for 20 minutes at RT. Oxidation reactions were quenched by adding methionine to a final concentration of 4 mM. Residual hNE-inhibition activity remaining in the quenched reactions is shown as a percentage of the activity observed with no added oxidant.
molecule,measurement,setting,value
B1,Percent Residual hNE-Inhibitory Activity,Molar Ratio CHL-T:Inhibitor 0,100%
same,Percent Residual hNE-Inhibitory Activity,Molar Ratio CHL-T:Inhibitor 0.29,93%
same,Percent Residual hNE-Inhibitory Activity,Molar Ratio CHL-T:Inhibitor 1.2,65%
same,Percent Residual hNE-Inhibitory Activity,Molar Ratio CHL-T:Inhibitor 2.4,48%
same,Percent Residual hNE-Inhibitory Activity,Molar Ratio CHL-T:Inhibitor 5.9,18%
same,Percent Residual hNE-Inhibitory Activity,Molar Ratio CHL-T:Inhibitor 12.,15%
same,Percent Residual hNE-Inhibitory Activity,Molar Ratio CHL-T:Inhibitor .59,82%
same,Percent Residual hNE-Inhibitory Activity,Molar Ratio CHL-T:Inhibitor .88,73%
